Experimental data taken from the supplement of paper PMC7877785.
± gives the uncertainty stated by the source.

Test: self-splicing fitness, log relative to wild type (ln ratio); higher = more splicing; Tetrahymena group I intron in knt gene, E. coli kanamycin selection, DiMSum; sequences stand for … in CUCUCU…GGAGGGAAAAGUUAUCAGGCAUGCACCUGGUAGCUAGUCUUUAAACCAAUAGAUUGCAUCGGUUUAAAAGGCAAGACCGUCAAAUUGCGGGAAAGGGGUCAACAGCCGUUCAGUACCAAGUCUCAGGGGAAACUUUGAGAUGGCCUUGCAAAGGGUAUGGUAAUAAGCUGACGGACAUGGUCCUAACCACGCAGCCAAGUCCUAAGUCAACAGAUCUUCUGUUGAUAUGGAUGCAGUUCACAGACUAAAUGUCGGUCGGGGAAGAUGUAUUCUUCUCAUAAGAUAUAGUCGGACCUCUCCUUAAUGGGAGCUAGCGGAUGAAGUGAUGCAACACUGGAGCCGCUGGGAACUAAUUUGUAUGCGAAAGUAUAUUGAUUAGUUUUGGAGUACUCGUGGUCG
How it was run: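 Pooled colonies went to amplicon sequencing on an Illumina HiSeq 2500 after six replicate transformations. The plates were LB agar with 100 μg/mL carbenicillin, 50 μM IPTG and 0.2% rhamnose, with or without 25 μg/mL kanamycin, incubated overnight at 37°C or 30°C. The E. coli BL21(DE3) library had all eight P1ex-region intron nucleotides randomised, the intron placed in the knt kanamycin-resistance gene on pET-22b(+). DiMSum fitness is the error-weighted combination of replicate fold changes, kanamycin against none, normalised to wild type.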

Sequence: UUUAAGCAAUAUUACGUUGC
- self-splicing fitness (ln) (30 °C): -3.26 ± 0.43
- self-splicing fitness (ln) (37 °C): -2.97 ± 0.38

Sequence: UUUCAGCAAUAUUACGACUG
- self-splicing fitness (ln) (30 °C): -2.89 ± 0.2
- self-splicing fitness (ln) (37 °C): -1.53 ± 0.18

Sequence: UUUCAGCAAUAUUACGACUU
- self-splicing fitness (ln) (30 °C): -0.723 ± 0.077
- self-splicing fitness (ln) (37 °C): -0.00938 ± 0.099

Sequence: UUUCAGCAAUAUUACGCAUG
- self-splicing fitness (ln) (30 °C): -0.765 ± 0.093
- self-splicing fitness (ln) (37 °C): -0.0959 ± 0.11

Sequence: UUUCAGCAAUAUUACGCCUG
- self-splicing fitness (ln) (30 °C): -1.95 ± 0.12
- self-splicing fitness (ln) (37 °C): -1.02 ± 0.11

Sequence: UUUCAGCAAUAUUACGCGCC
- self-splicing fitness (ln) (30 °C): -1.72 ± 0.24
- self-splicing fitness (ln) (37 °C): -0.992 ± 0.37

Sequence: UUUCAGCAAUAUUACGCUCA
- self-splicing fitness (ln) (30 °C): -0.608 ± 0.17
- self-splicing fitness (ln) (37 °C): 0.404 ± 0.18

Sequence: UUUCAGCAAUAUUACGCUCC
- self-splicing fitness (ln) (30 °C): -1.69 ± 0.22
- self-splicing fitness (ln) (37 °C): -1.02 ± 0.29

Sequence: UUUCAGCAAUAUUACGCUGG
- self-splicing fitness (ln) (30 °C): -3.94 ± 0.3
- self-splicing fitness (ln) (37 °C): -1.77 ± 0.33

Sequence: UUUCAGCAAUAUUACGCUGU
- self-splicing fitness (ln) (30 °C): -3.52 ± 0.13
- self-splicing fitness (ln) (37 °C): -2.19 ± 0.21

Sequence: UUUCAGCAAUAUUACGGCAA
- self-splicing fitness (ln) (30 °C): -0.476 ± 0.089
- self-splicing fitness (ln) (37 °C): -0.0559 ± 0.11

Sequence: UUUCAGCAAUAUUACGGCCG
- self-splicing fitness (ln) (30 °C): -0.936 ± 0.17
- self-splicing fitness (ln) (37 °C): -0.968 ± 0.26

Sequence: UUUCAGCAAUAUUACGGCUA
- self-splicing fitness (ln) (30 °C): 0.189 ± 0.14
- self-splicing fitness (ln) (37 °C): 0.336 ± 0.12

Sequence: UUUCAGCAAUAUUACGGUGU
- self-splicing fitness (ln) (30 °C): -2.91 ± 0.13
- self-splicing fitness (ln) (37 °C): -2.15 ± 0.18

Sequence: UUUCAGCAAUAUUACGUAAC
- self-splicing fitness (ln) (30 °C): -3.2 ± 0.23
- self-splicing fitness (ln) (37 °C): -2.4 ± 0.27

Sequence: UUUCAGCAAUAUUACGUACU
- self-splicing fitness (ln) (30 °C): -1.49 ± 0.15
- self-splicing fitness (ln) (37 °C): -0.647 ± 0.17

Sequence: UUUCAGCAAUAUUACGUGUU
- self-splicing fitness (ln) (30 °C): -3.42 ± 0.13
- self-splicing fitness (ln) (37 °C): -2.87 ± 0.14

Sequence: UUUGAGCAAUAUUACGAACA
- self-splicing fitness (ln) (30 °C): -2.9 ± 0.23
- self-splicing fitness (ln) (37 °C): -2.15 ± 0.21

Sequence: UUUGAGCAAUAUUACGAACC
- self-splicing fitness (ln) (30 °C): -2.5 ± 0.35

Sequence: UUUGAGCAAUAUUACGAAGU
- self-splicing fitness (ln) (37 °C): -2.67 ± 0.3

Sequence: UUUGAGCAAUAUUACGAUAC
- self-splicing fitness (ln) (30 °C): -3.55 ± 0.48

Sequence: UUUGAGCAAUAUUACGAUGG
- self-splicing fitness (ln) (30 °C): -2.08 ± 0.17
- self-splicing fitness (ln) (37 °C): -1.77 ± 0.2

Sequence: UUUGAGCAAUAUUACGAUUU
- self-splicing fitness (ln) (30 °C): -3.28 ± 0.24
- self-splicing fitness (ln) (37 °C): -2.05 ± 0.27

Sequence: UUUGAGCAAUAUUACGCAGG
- self-splicing fitness (ln) (30 °C): -2.99 ± 0.21
- self-splicing fitness (ln) (37 °C): -1.34 ± 0.18

Sequence: UUUGAGCAAUAUUACGCAUG
- self-splicing fitness (ln) (30 °C): -0.647 ± 0.12
- self-splicing fitness (ln) (37 °C): -0.524 ± 0.19

Sequence: UUUGAGCAAUAUUACGCAUU
- self-splicing fitness (ln) (30 °C): -2.65 ± 0.27
- self-splicing fitness (ln) (37 °C): -1.09 ± 0.2

Sequence: UUUGAGCAAUAUUACGCCUU
- self-splicing fitness (ln) (37 °C): -2.2 ± 0.45

Sequence: UUUGAGCAAUAUUACGCUGU
- self-splicing fitness (ln) (30 °C): -3.01 ± 0.27

Sequence: UUUGAGCAAUAUUACGGAUC
- self-splicing fitness (ln) (30 °C): -3.24 ± 0.37
- self-splicing fitness (ln) (37 °C): -2.24 ± 0.44

Sequence: UUUGAGCAAUAUUACGGCAU
- self-splicing fitness (ln) (30 °C): -1.56 ± 0.33
- self-splicing fitness (ln) (37 °C): -1.62 ± 0.3

Sequence: UUUGAGCAAUAUUACGGGGA
- self-splicing fitness (ln) (37 °C): -2.42 ± 0.41

Sequence: UUUGAGCAAUAUUACGUAGC
- self-splicing fitness (ln) (30 °C): -1.83 ± 0.32

Sequence: UUUGAGCAAUAUUACGUGCA
- self-splicing fitness (ln) (30 °C): -3.05 ± 0.21
- self-splicing fitness (ln) (37 °C): -1.96 ± 0.18

Sequence: UUUGAGCAAUAUUACGUUUA
- self-splicing fitness (ln) (30 °C): -3.32 ± 0.24
- self-splicing fitness (ln) (37 °C): -2.21 ± 0.23

Sequence: UUUUAGCAAUAUUACGAACG
- self-splicing fitness (ln) (30 °C): -0.665 ± 0.11
- self-splicing fitness (ln) (37 °C): 0.449 ± 0.18

Sequence: UUUUAGCAAUAUUACGAACU
- self-splicing fitness (ln) (30 °C): -1.75 ± 0.34
- self-splicing fitness (ln) (37 °C): -0.164 ± 0.23

Sequence: UUUUAGCAAUAUUACGAAGA
- self-splicing fitness (ln) (30 °C): -1.85 ± 0.31
- self-splicing fitness (ln) (37 °C): -1.21 ± 0.22

Sequence: UUUUAGCAAUAUUACGACGG
- self-splicing fitness (ln) (30 °C): -0.13 ± 0.14
- self-splicing fitness (ln) (37 °C): -0.173 ± 0.18

Sequence: UUUUAGCAAUAUUACGACUA
- self-splicing fitness (ln) (30 °C): -0.401 ± 0.18
- self-splicing fitness (ln) (37 °C): 0.109 ± 0.14

Sequence: UUUUAGCAAUAUUACGACUU
- self-splicing fitness (ln) (30 °C): -1.64 ± 0.32
- self-splicing fitness (ln) (37 °C): -1.14 ± 0.33

Sequence: UUUUAGCAAUAUUACGAGAG
- self-splicing fitness (ln) (30 °C): -1.12 ± 0.18
- self-splicing fitness (ln) (37 °C): -0.225 ± 0.21

Sequence: UUUUAGCAAUAUUACGAUCG
- self-splicing fitness (ln) (30 °C): -0.15 ± 0.26

Sequence: UUUUAGCAAUAUUACGAUGU
- self-splicing fitness (ln) (30 °C): -2.19 ± 0.23
- self-splicing fitness (ln) (37 °C): -1.6 ± 0.16

Sequence: UUUUAGCAAUAUUACGCAUU
- self-splicing fitness (ln) (30 °C): -2.39 ± 0.11
- self-splicing fitness (ln) (37 °C): -1.27 ± 0.15

Sequence: UUUUAGCAAUAUUACGCGCG
- self-splicing fitness (ln) (30 °C): -0.432 ± 0.11
- self-splicing fitness (ln) (37 °C): -0.122 ± 0.15

Sequence: UUUUAGCAAUAUUACGCUUG
- self-splicing fitness (ln) (30 °C): -0.327 ± 0.2
- self-splicing fitness (ln) (37 °C): -0.13 ± 0.19

Sequence: UUUUAGCAAUAUUACGGACU
- self-splicing fitness (ln) (30 °C): -2.67 ± 0.39
- self-splicing fitness (ln) (37 °C): -0.49 ± 0.35

Sequence: UUUUAGCAAUAUUACGGUCU
- self-splicing fitness (ln) (30 °C): -2.23 ± 0.17
- self-splicing fitness (ln) (37 °C): -1.35 ± 0.2

Sequence: UUUUAGCAAUAUUACGUAUU
- self-splicing fitness (ln) (30 °C): -3.2 ± 0.35
- self-splicing fitness (ln) (37 °C): -1.04 ± 0.38

Sequence: UUUUAGCAAUAUUACGUGAA
- self-splicing fitness (ln) (30 °C): -1.14 ± 0.074
- self-splicing fitness (ln) (37 °C): -0.89 ± 0.1

Sequence: UUUUAGCAAUAUUACGUGAG
- self-splicing fitness (ln) (30 °C): -0.331 ± 0.12
- self-splicing fitness (ln) (37 °C): -0.445 ± 0.22

Sequence: UUUUAGCAAUAUUACGUGAU
- self-splicing fitness (ln) (30 °C): -2.76 ± 0.31
- self-splicing fitness (ln) (37 °C): -2.19 ± 0.32
